Experimental data reported in the supplement of paper PMC12764529.
± gives the half width of the 95% confidence interval.

Legend:
[1] = folding stability dG unfold from trypsin proteolysis; higher = more stable
How it was run: (§1)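 Only designs with AlphaFold2 dimer inter-PAE above 15 were retained; each was a mini-protein under 80 residues with no cysteine, in a PA-tagged cDNA display construct. After digestion with trypsin and chymotrypsin and sequencing, K50 was inferred by Bayesian fitting of counts, and unfolding free energy was derived per protease or combined against a sequence-predicted unfolded-state K50 and a shared folded-state K50.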

[2] = folding stability dG unfold from chymotrypsin proteolysis; higher = more stable
How it was run: as §1

[3] = folding stability dG unfold (combined trypsin and chymotrypsin); higher = more stable
How it was run: as §1

Sequence | folding stability dG unfold [1] [kcal/mol] | folding stability dG unfold [2] [kcal/mol] | folding stability dG unfold [3] [kcal/mol]
SGPTVTYKVPYTRDVAVPTVKIGAKVTTTTTVTKLPNGTLASTSTSADVELTLNLPPDTPLSPNYLSTGGSA [r9_277_JUSTAS] | -0.0817 ± 0.21 | -0.175 ± 0.38 | -0.0833 ± 0.2
SGSLSIEFSSTEPSSPGSITLSKLFPEPEADRATHTIKLPNSTIELEFDSAEDLIKNVEKLLKELGNPGKSA [r9_258_JUSTAS] | 0.297 ± 0.058 | -0.0786 ± 0.18 | 0.115 ± 0.12
SGSPDELEVVESEETVNIPPEELEAKYGIKVPENSTVVIKTKTLKPPSGNDIVEPEIKIYDPVTNEWIELSA [r9_349_JUSTAS] | -0.537 ± 0.13 | -0.474 ± 0.27 | -0.47 ± 0.25
SGTRTVTVTGAVLSRLPDGTLVTDPGEAPVTVPVPPPKPRIEVPPELREKLREAAEKLGLELTEEDIETASA [r9_487_TrMRF] | -0.208 ± 0.36 | -0.896 ± 0.9 | -0.365 ± 0.26
SGVQLEWKYDPEDNKREIKISIFFPADDPEKKKQFAKVIAKEIENMFQEQGWKPKKIDIEVMRMPPGQPLSA [r9_117_TrROS] | 0.889 ± 0.049 | 1.2 ± 0.063 | 1.02 ± 0.067
SGYLDAPVKDIKVEKKPIPTSGKVTYTFEAETEDGKPVRVEYNPVTGKIVFGLPPGFKIKPGKPAEVVVGSA [r9_509_TrMRF] | 0.16 ± 0.081 | 0.885 ± 0.2 | 0.718 ± 0.13
SHMVTVTIYKNGVKVKETEIPLEEVEKMPEEEIIEFAAEIAKKNPGVNYTFTITRPSGPSTVSIDGPEKLKS [r1_477_JUSTAS] | 0.762 ± 0.12 | 1.55 ± 0.14 | 1.28 ± 0.21
SHTTTEPATGVTVEVVPSPDGTHVVTVKKPGGEVVKTVTVPSGPRPPGSTTPLTVALTDLPPDVETSVDLSS [r1_263_JUSTAS] | 0.416 ± 0.067 | 0.141 ± 0.077 | 0.232 ± 0.2
SIEVEKTPDGKFEIENDNGWKVEIEVFPGMIEIKIKPVKVYVPDGKWFETPEEAEKMQEKNGVPITEDDLSA [r9_660_TrROS] | 0.615 ± 0.12 | 1.08 ± 0.071 | 0.743 ± 0.19
SIIIQFDNPEEAKENAEDFINEFQDEFGPGQKIPITIHDPGGDPATFPIEIEPPPPPVEYDEENGKLKPDSA [r9_596_TrROS] | 1.13 ± 0.18 | 1.7 ± 0.17 | 1.51 ± 0.43
SIIVEPLPDNTFIAYFPETDSVIEIRVDPSTGKAHAIAELPGEPVEATFDPRKGVLVIELPNGRIVLPLLSA [r9_541_TrMRF] | 2.28 ± 0.051 | 1.7 ± 0.065 | 2.01 ± 0.088
SIKFPDGSEIEFEWSEDKEYEVELPNGPIVKIKKVIKEGESWIVEVEFEDGSKVILEVDPNNPEEVQKAIAS [r1_66_TrMRF] | 1.77 ± 0.086 | 2.19 ± 0.072 | 2.06 ± 0.1
SKFDPDDPGQPVRFTVMIPVPEDAMKNGDLEEVRDKVEEAADMFRPHGMEVKDIEVPPEQGWVMVKFEMPSA [r9_75_TrROS] | -0.824 ± 0.34 | -0.222 ± 0.43 | -0.0605 ± 0.65
SKGTFRAVLPLETLKELIERFKSKGYRIEVKPLSIKPFEVPGIREDGTPELFPVVEVEAEIEIYPPEDPASA [r9_991_TrMRF] | 1.671 ± 0.015 | 1.9 ± 0.063 | 1.82 ± 0.066
SKIKIEVDEETGVITVTVEVDNLSEEEILDKLKEELEKLGFEVEVKVVKIEEVNGKVVVTVEIKIKPEKLSA [r9_347_TrROS_Hall] | 1.75 ± 0.11 | 0.9 ± 0.073 | 1.45 ± 0.093
SKIKIKAKDKKTNIPIDEIDIYPLEDGSYGIKIIFTFPKEKKEITIPIPKNKKIEEFIKALGLEEIEIDASA [r9_492_TrMRF] | 1 ± 0.1 | 2.33 ± 0.13 | 1.79 ± 0.23
SKIKILIAMTEDEIKKLAEELKKKGYEIKIKVKKIEKKKVKVKNKDGKTYEKEVVLVEVEIEIVPKGVKPSA [r9_991_TrROS_Hall] | 2.73 ± 0.43 | 3.98 ± 0.32 | 3.27 ± 0.73
SKIKKIKRVEIFKKKEKGYVVKITVEIDGKEYEFTVPAGMSLEEALKELLKNKDVKIKSVEIKPVSKEELSA [r9_607_TrROS_Hall] | 0.0722 ± 0.22 | 0.734 ± 0.18 | 0.595 ± 0.29
SKIKPGDVVTIMFPFPPGDPDQIREWAYWIARKLGPDVKVKSVEYNPNDPRYVQIEVRVPGGKITIHIMWSA [r9_1079_TrROS] | 2.7 ± 0.06 | 4.25 ± 0.076 | 3.7 ± 0.12
SKIRIEWPDETQEIKIPKDASVAIDPGNGHIAIHGPDGEALGFPLGPNWKIEPDDDEIEITIPPPKPEDPSA [r9_653_TrROS] | -0.118 ± 0.15 | 0.141 ± 0.056 | 0.158 ± 0.2
SKKIKLSEEMKEAIKEAVKKAKPGEKVEITIKLKDGSIIKIEIYPDGTIKISVFDKNGKKIKEFEIKIKPSA [r9_132_TrROS_Hall] | 1.43 ± 0.075 | 2.59 ± 0.12 | 1.81 ± 0.44
